From paper PMC2632919 (Nucleic Acids Research, 2008)

What was measured:
[1] = biological target: T1, HmtSSB (human mitochondrial SSB) (Homo sapiens, UniProt Q04837 17-148); assay: fluorescence anisotropy
T1 sequence: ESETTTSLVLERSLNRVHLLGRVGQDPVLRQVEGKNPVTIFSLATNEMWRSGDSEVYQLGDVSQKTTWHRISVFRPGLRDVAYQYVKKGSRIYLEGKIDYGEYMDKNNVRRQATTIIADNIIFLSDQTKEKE

[2] = biological target: T1, HmtSSB (human mitochondrial SSB); assay: fluorescence anisotropy; remark: listed apart in the source
AUC = biological target: the molecule itself; assay: AUC

Binder: GTTTTCCCAGTCACGAC (ssDNA) [17-mer]
- Kd [1]: 19.2 ± 3.1 nM
- apparent K (half saturation) [2]: 19.4 ± 4 nM

B1: human mitochondrial single-stranded DNA-binding protein (HmtSSB) (natural protein, UniProt Q04837 17-148, looked up)
chain: T1 sequence
- stoichiometry N (AUC): 4
